Substrate in data set [1]: Oc1ccccc1
The data set can be described thus: purified protein. It is filed as biochemical, Leptoxyphium fumago. The settings on record: 50 mM sodium citrate pH 5.0, 0.2 mM H2O2, 2.4 mM 4-aminoantipyrine, 30 °C in methods (room temperature in text), apparent, native enzyme.

Substrate in data set [2]: CSc1ccccc1
Nature of the data set: purified protein. It counts as biochemical, Leptoxyphium fumago. The settings on record: 50 mM sodium citrate pH 5.0, 300 μM H2O2, room temperature, apparent, native enzyme.

B1: Chloroperoxidase (CPO) (Leptoxyphium fumago) (protein)
chain: QEPGSGIGYPYDNNTLPYVAPGPTDSRAPCPALNALANHGYIPHDGRAISRETLQNAFLNHMGIANSVIELALTNAFVVCEYVTGSDCGDSLVNLTLLAEPHAFEHDHSFSRKDYKQGVANSNDFIDNRNFDAETFQTSLDVVAGKTHFDYADMNEIRLQRESLSNELDFPGWFTESKPIQNVESGFIFALVSDFNLPDNDENPLVRIDWWKYWFTNESFPYHLGWHPPSPAREIEFVTSASSAVLAASVTSTPSSLPSGAIGPGAEAVPLSFASTMTPFLLATNAPYYAQDPTLGPND
notes: not chemically modified
Regarding B1, the Km – broadly, the concentration of substrate that gives half-maximal velocity – came out at 350 ± 10 µM in the data set “purified protein [1]” and 1640 ± 90 µM in “purified protein [2]”.
